Measured values reported in PMC2064615.

Molecular target: taxol-stabilized microtubules polymerized from tubulin purified from bovine brain (bovine)
Assay: co-sedimentation

Row | Binder | stoichiometry N (tubulin heterodimers per emerin)
1 | emerin peptide aa 1–176 (most of the nucleoplasmic domain) (domain or fragment) MDNYADLSDTELTTLLRRYNIPHGPVVGSTRRLYEKKIFEYETQRRRLSPPSSSAASSYSFSDLNSTRGDADMYDLPKKEDALLYQSKGYNDDYYEESYFTTRTYGEPESAGPSRAVRQSVTSFPDADAFHHQVHDDDLLSSSEEECKDRERPMYGRDSAYQSITHYRPVSASRSS | 8
2 | His-tagged recombinant emerin peptide corresponding to aa 73–180 (domain or fragment) MYDLPKKEDALLYQSKGYNDDYYEESYFTTRTYGEPESAGPSRAVRQSVTSFPDADAFHHQVHDDDLLSSSEEECKDRERPMYGRDSAYQSITHYRPVSASRSSLDLS | 24
